The record followed here is the Immune Epitope Database (IEDB).

One assay deals with HLA-A*68:02. Nature of the assay: IEDB peptide-MHC binding, cellular MHC/competitive/fluorescence; ≥ and ≤ were set here for values at or beyond the usual limits of such assays.
Another assay deals with HLA-A*02:01. Nature of the assay: IEDB peptide-MHC binding, purified MHC/competitive/radioactivity; ≥ and ≤ were set here for values at or beyond the usual limits of such assays.
Another assay has as its target HLA-A*02:02. The description is as above.
A further assay addresses HLA-A*02:03. The description is as above.
The next assay deals with HLA-A*02:06. Described as above.
Setting [1] is: source organism: Vaccinia virus WR.
The mark [2] stands for this setting: source organism: Hepacivirus hominis.

On to GMQFDKVYL, for which the IC50 worked out at 17200 nM with HLA-A*68:02 (setting [1]); 72 nM in the assay with HLA-A*02:01 (setting [1]); 13 nM with HLA-A*02:02 (setting [1]); 277 nM with HLA-A*02:03 (setting [1]); 1900 nM with HLA-A*02:06 (setting [1]).

Consider GMSIVCIVA, for which the half-maximal inhibitory concentration (IC50) with HLA-A*68:02 (setting [1]) is 9840 nM; in the assay with HLA-A*02:01 (setting [1]), 83 nM; with HLA-A*02:02 (setting [1]) it was 190 nM; with HLA-A*02:03 (setting [1]), 656 nM; in the assay with HLA-A*02:06 (setting [1]), 4510 nM.

Consider GMYYPTNDI, for which the IC50 was at least 70000 nM in the assay with HLA-A*68:02 (setting [1]); 268 nM with HLA-A*02:01 (setting [1]); 53 nM in the assay with HLA-A*02:02 (setting [1]); 8.7 nM with HLA-A*02:03 (setting [1]); 1680 nM with HLA-A*02:06 (setting [1]).

Regarding GVSGLYIPGT, the IC50 is 15800 nM with HLA-A*68:02 (setting [1]); 4730 nM with HLA-A*02:01 (setting [1]); 140 nM in the assay with HLA-A*02:02 (setting [1]); 2150 nM in the assay with HLA-A*02:03 (setting [1]); 32 nM with HLA-A*02:06 (setting [1]).

As for HLDGEVLSL, the IC50 with HLA-A*68:02 (source organism: SARS-CoV1) is 13600 nM; with HLA-A*02:01 (source organism: SARS-CoV1), 67 nM; in the assay with HLA-A*02:02 (source organism: SARS-CoV1), 66 nM; in the assay with HLA-A*02:03 (source organism: SARS-CoV1) it was 131 nM; with HLA-A*02:06 (source organism: SARS-CoV1), 160 nM.

For IALCKVTVPT, the IC50 in the assay with HLA-A*68:02 (setting [1]) was at least 70000 nM; with HLA-A*02:01 (setting [1]), 2120 nM; with HLA-A*02:02 (setting [1]), 1960 nM; in the assay with HLA-A*02:03 (setting [1]), 2220 nM; with HLA-A*02:06 (setting [1]), 652 nM.

In the case of IAMWLLLLSI, the IC50 stood at 17200 nM in the assay with HLA-A*68:02 (source organism: SARS-CoV1); 216 nM with HLA-A*02:01 (source organism: SARS-CoV1); 86 nM with HLA-A*02:02 (source organism: SARS-CoV1); 1900 nM with HLA-A*02:03 (source organism: SARS-CoV1); 498 nM in the assay with HLA-A*02:06 (source organism: SARS-CoV1).

For IIGEPIIVA, the IC50 came out at 6390 nM with HLA-A*68:02 (setting [1]); 1440 nM with HLA-A*02:01 (setting [1]); 2320 nM with HLA-A*02:02 (setting [1]); 4780 nM in the assay with HLA-A*02:03 (setting [1]); 1350 nM with HLA-A*02:06 (setting [1]).

For ILDNAAKYV, the 50% inhibitory concentration (IC50) with HLA-A*68:02 (setting [1]) turned out to be 22700 nM; with HLA-A*02:01 (setting [1]), 14 nM; with HLA-A*02:02 (setting [1]), 126 nM; with HLA-A*02:03 (setting [1]), 261 nM; with HLA-A*02:06 (setting [1]), 1810 nM.

Regarding ILDNLRCHSA, the IC50 came out at 12800 nM with HLA-A*68:02 (setting [1]); 63 nM with HLA-A*02:01 (setting [1]); 972 nM in the assay with HLA-A*02:02 (setting [1]); 69 nM in the assay with HLA-A*02:03 (setting [1]); 297 nM in the assay with HLA-A*02:06 (setting [1]).

As to ILFLTLIVFT, the IC50 in the assay with HLA-A*68:02 (source organism: SARS-CoV1) was 7110 nM; in the assay with HLA-A*02:01 (source organism: SARS-CoV1), 21 nM; in the assay with HLA-A*02:02 (source organism: SARS-CoV1) it was 24 nM; with HLA-A*02:03 (source organism: SARS-CoV1) it was 1070 nM; with HLA-A*02:06 (source organism: SARS-CoV1), 703 nM.

For the sequence ILFQNNDINA, the IC50 with HLA-A*68:02 (setting [1]) was determined as 9980 nM; with HLA-A*02:01 (setting [1]), 549 nM; with HLA-A*02:02 (setting [1]), 23 nM; with HLA-A*02:03 (setting [1]), 407 nM; in the assay with HLA-A*02:06 (setting [1]), 3180 nM.

Turning to ILGIIITVGM, the IC50 with HLA-A*68:02 (setting [1]) worked out at 38300 nM; with HLA-A*02:01 (setting [1]), 1270 nM; with HLA-A*02:02 (setting [1]) it was 288 nM; in the assay with HLA-A*02:03 (setting [1]), 265 nM; in the assay with HLA-A*02:06 (setting [1]), 4710 nM.

As to ILHNIYRLFT, the IC50 is 40900 nM with HLA-A*68:02 (setting [1]); 231 nM in the assay with HLA-A*02:01 (setting [1]); 125 nM with HLA-A*02:02 (setting [1]); 11 nM in the assay with HLA-A*02:03 (setting [1]); 1210 nM with HLA-A*02:06 (setting [1]).

As for ILLSRCLWWT, the IC50 in the assay with HLA-A*68:02 (setting [2]) was at least 70000 nM; with HLA-A*02:01 (setting [2]) it was 293 nM; in the assay with HLA-A*02:02 (setting [2]) it was 4740 nM; with HLA-A*02:03 (setting [2]), 1100 nM; with HLA-A*02:06 (setting [2]) it was 246 nM.

As for ILSLETVKM, the IC50 was 9700 nM with HLA-A*68:02 (setting [1]); 204 nM in the assay with HLA-A*02:01 (setting [1]); 4.8 nM with HLA-A*02:02 (setting [1]); 12 nM with HLA-A*02:03 (setting [1]); 280 nM with HLA-A*02:06 (setting [1]).

In the case of ILSNKLLYAA, the IC50 was found to be 12000 nM with HLA-A*68:02 (setting [1]); 51 nM with HLA-A*02:01 (setting [1]); 8.1 nM with HLA-A*02:02 (setting [1]); 1110 nM with HLA-A*02:03 (setting [1]); 150 nM in the assay with HLA-A*02:06 (setting [1]).

As for IMAFILGIII, the IC50 in the assay with HLA-A*68:02 (setting [1]) is 14700 nM; with HLA-A*02:01 (setting [1]), 1110 nM; with HLA-A*02:02 (setting [1]), 632 nM; in the assay with HLA-A*02:03 (setting [1]) it was 3160 nM; with HLA-A*02:06 (setting [1]) it was 3190 nM.

As to IMEIVSHLRA, the IC50 is 19700 nM in the assay with HLA-A*68:02 (setting [1]); 1190 nM in the assay with HLA-A*02:01 (setting [1]); 955 nM with HLA-A*02:02 (setting [1]); 396 nM in the assay with HLA-A*02:03 (setting [1]); 4410 nM in the assay with HLA-A*02:06 (setting [1]).

In the case of IMRNFLRSI, the half-inhibitory concentration (IC50) with HLA-A*68:02 (setting [1]) amounted to 62700 nM; in the assay with HLA-A*02:01 (setting [1]), 2060 nM; with HLA-A*02:02 (setting [1]), 485 nM; with HLA-A*02:03 (setting [1]), 0.4 nM; in the assay with HLA-A*02:06 (setting [1]), 3920 nM.

Take IMRNFLRSIA: the IC50 with HLA-A*68:02 (setting [1]) was found to be 54200 nM; with HLA-A*02:01 (setting [1]), 813 nM; in the assay with HLA-A*02:02 (setting [1]), 60 nM; with HLA-A*02:03 (setting [1]), 122 nM; with HLA-A*02:06 (setting [1]), 544 nM.

With ITLILSNKLL, the IC50 amounted to 6490 nM with HLA-A*68:02 (setting [1]); 2200 nM with HLA-A*02:01 (setting [1]); 1090 nM with HLA-A*02:02 (setting [1]); 4690 nM with HLA-A*02:03 (setting [1]); 3890 nM in the assay with HLA-A*02:06 (setting [1]).

On to IVSHLRASTT, for which the IC50 was determined as 60600 nM with HLA-A*68:02 (setting [1]); 896 nM with HLA-A*02:01 (setting [1]); 139 nM with HLA-A*02:02 (setting [1]); 111 nM with HLA-A*02:03 (setting [1]); 173 nM with HLA-A*02:06 (setting [1]).

For KIIAVFDSKL, the IC50 in the assay with HLA-A*68:02 (setting [1]) turned out to be 31700 nM; with HLA-A*02:01 (setting [1]), 978 nM; with HLA-A*02:02 (setting [1]), 25 nM; with HLA-A*02:03 (setting [1]), 57 nM; in the assay with HLA-A*02:06 (setting [1]), 59 nM.
